In paper PMC9754288 one finds percent of transformed protoplasts with a YFP signal data, which are given here for 1 substance.

In this test the target is SAP11_(CaPm) from 'Ca. P. mali' strain STAA, split-YFP fusion for BiFC ('Candidatus Phytoplasma mali' strain STAA). The test is described as follows: split reporter (BiFC, NanoBiT); BiFC with split YFP from pBiFC-2in1 vectors in Nicotiana benthamiana mesophyll protoplasts; confocal microscopy 16 h after transformation; RFP marks transformed protoplasts.

Some results are limits rather than exact numbers.

Regarding “MdTCP16, split-YFP fusion for BiFC (natural protein)”, the percent of transformed protoplasts with a YFP signal is less than 92.5%.
